Results reported in US6294333, “Fluorescent intensity assay for protein or peptide binding to nucleic acids” (Ingeneus Corp.).

Columns and labels:
[1] = molecular target: T1, c-JUN mutant 14 DNA-binding domain peptide (K277I, C278D) (Homo sapiens, UniProt P05412 SEQ:1-132); test: fluorescence quenching; no decrease at 200-400 ng; settings: chain copies: 2 (inferred); label: 5'-fluorescein both strands
T1 chain: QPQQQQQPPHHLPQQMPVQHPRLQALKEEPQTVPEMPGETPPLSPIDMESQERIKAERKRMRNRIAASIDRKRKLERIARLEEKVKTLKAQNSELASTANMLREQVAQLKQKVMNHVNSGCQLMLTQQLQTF
Method: (§1) The c-JUN :DNA binding reaction mixture (30 μl) contained the following: 9.25 mM HEPES, pH 7.9, 2.23 mM MgCl_2, 0.03 mM EDTA, 50 mM NaCl, 5.0 mM DTT, 3.75% (v/v) glycerol, 0.15 μg/μl bovine serum albumin (BSA), 0–2.0 μg pure c-JUN protein (Promega, Madison, Wis.) or 0–400 ng pure c-JUN peptide, and 0.075 pmole 5'-fluorescein labeled dsDNA oligonucleotide. When full-length c-JUN was used, 3 ng/μl poly(dI)-poly(dC) was included in the reaction mix, and added before the addition of protein and fluorescein-labeled DNA. The examples in FIGS. 1B and 1D contained 50 mM KCl in lieu of 50 mM NaCl. Wild-type and mutant c-JUN DNA-binding domain peptides were generously supplied by Dr. Dirk Bohmann (European Molecular Biology Laboratory, Heidelberg, Germany). The reaction mixtures were incubated at 21° C. for 30 minutes, placed into a quartz cuvette, irradiated with an argon ion laser beam having a wavelength of 488 nm and monitored for fluorescent emission.
The specificity of the laser binding assay was further tested by reacting a mutant c-JUN DNA-binding domain peptide with wild-type or mutant DNA. Specific mutations in the basic domain of c-JUN abolish DNA binding without affecting dimerization, whereas specific mutations in the leucine zipper prevent both dimerization and DNA binding.

[2] = molecular target: Sp1 full length (UniProt P08047 P08047:2-785); test: fluorescence quenching; 200 ng Sp1, no decrease; settings: tags: Promega; label: 5'-fluorescein both strands
Method: The Sp1:DNA binding reaction mixture (30 µl) contained the following: 25 mM HEPES, pH 7.8, 100mM KCl, 100 µM ZnSO_4, 1 mM DTT, 20% (v/v) glycerol, 0.05 µg/µl BSA, 0–200 ng pure Sp1 protein (Promega) and 0.1 pmole 5'-fluorescein labeled dsDNA oligonucleotide. The reaction mixes were incubated at 0° C. for […], placed into a quartz cuvette, irradiated with an argon ion laser beam having a wavelength of 488 nm and monitored for fluorescent emission.
When 200 ng Sp1 was reacted with 0.1 pmole mutant JD13F/14F, no decrease in fluorescent intensity was observed (FIG. 4B), indicating non-binding of protein to the mutated DNA sequence. These studies confirmed the specificity of the laser detection assay for a completely different class of DNA-binding proteins.

[3] = molecular target: c-JUN DNA-binding domain peptide (wild-type) (Homo sapiens, UniProt P05412 SEQ:1-132); test: fluorescence quenching; minor increase in intensity at 20-200 ng; settings: chain copies: 2 (inferred); label: 5'-fluorescein both strands
Method: as §1

[4] = molecular target: c-JUN full length (Homo sapiens, UniProt P05412 P05412:1-331); test: fluorescence quenching; no decrease in NaCl or KCl, 21 C; settings: tags: Promega; 340 aa; chain copies: 2 (stated homodimer); label: 5'-fluorescein both strands
Method: as §1
These mutant DNA binding studies confirm the specificity of both the c-JUN:wild-type DNA binding conditions and the laser detection method.

Sequence of Sp1 full length (P08047 2-785, one chain of several): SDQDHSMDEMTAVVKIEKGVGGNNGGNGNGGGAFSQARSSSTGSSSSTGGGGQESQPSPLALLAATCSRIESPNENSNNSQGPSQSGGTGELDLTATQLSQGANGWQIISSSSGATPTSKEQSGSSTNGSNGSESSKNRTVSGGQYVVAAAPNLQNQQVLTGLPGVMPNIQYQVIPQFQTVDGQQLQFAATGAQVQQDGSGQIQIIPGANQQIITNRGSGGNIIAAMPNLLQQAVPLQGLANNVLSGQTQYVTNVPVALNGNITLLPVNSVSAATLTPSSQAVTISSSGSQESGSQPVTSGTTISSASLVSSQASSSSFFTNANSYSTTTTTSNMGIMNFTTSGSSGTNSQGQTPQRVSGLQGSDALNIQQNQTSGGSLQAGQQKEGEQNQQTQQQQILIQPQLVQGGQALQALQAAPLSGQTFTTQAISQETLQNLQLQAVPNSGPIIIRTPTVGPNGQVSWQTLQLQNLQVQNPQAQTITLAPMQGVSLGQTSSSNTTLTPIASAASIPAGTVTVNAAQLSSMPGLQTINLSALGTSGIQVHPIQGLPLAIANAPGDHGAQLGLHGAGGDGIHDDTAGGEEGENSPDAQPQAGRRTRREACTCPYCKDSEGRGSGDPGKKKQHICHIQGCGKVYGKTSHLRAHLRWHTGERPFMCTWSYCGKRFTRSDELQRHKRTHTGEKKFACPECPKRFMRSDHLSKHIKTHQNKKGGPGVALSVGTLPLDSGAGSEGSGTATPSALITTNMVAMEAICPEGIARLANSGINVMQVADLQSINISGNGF

B1: JD1F/2F (dsDNA)
DNA 1: GTGTCTGACTCATGCTT
DNA 2: AAGCATGAGTCAGACAC
**Q.** Does B1 bind [1]?
**A.** no binding

B2: JD13F/14F (dsDNA)
DNA 1: CCGGCCTAAATAGGGCTTTT
DNA 2: AAAAGCCCTATTTAGGCCGG
**Q.** Does B2 bind [2]?
**A.** no binding

B3: JD3F/4F (dsDNA)
DNA 1: GTGTCTTACTCATGCTT
DNA 2: AAGCATGAGTAAGACAC
**Q.** Which results are given for B3?
**A.** binding result [1]: no binding; binding result [3]: no binding; binding result [4]: no binding
